Laboratory results taken from US10221215 (NEW YORK UNIVERSITY, dated 2019).
Positions of bridges follow the written chain, without caps; N, C: chain ends. Non-standard residues stand in square brackets, D forms with d. No end group written: not given here. Aib = CC(C)(N)C(=O)O

B1: Peptide 7 (peptide)
peptide: FEGIYRLELLKAEEAN
B2: HBS 7 (peptide)
peptide: FEGIYRLELLKAEEAN
modifications: staple (positions not given here); also: HBS: N-terminal main-chain i,i+4 H-bond replaced by C-C bond (ring-closing metathesis), residues 1-4
B3: HBS 7^mut (peptide)
peptide: AEGIYRLELLKAEAAA
modifications: staple (positions not given here); also: HBS: N-terminal main-chain i,i+4 H-bond replaced by C-C bond (ring-closing metathesis), residues 1-4
B4: Peptide 8 (peptide)
peptide: FEGIYRLELLK
B5: HBS 8 (peptide)
peptide: FEGIYRLELLK
modifications: staple (positions not given here); also: HBS: N-terminal main-chain i,i+4 H-bond replaced by C-C bond (ring-closing metathesis), residues 1-4
B6: HBS 9 (peptide)
peptide: FEGLLRLWLRK[Aib]EEAN
modifications: staple (positions not given here); not fully specified (C-terminus, bridges); also: hydrogen bond surrogate: N-terminal main-chain i,i+4 H-bond replaced by C-C bond
B7: Peptide 10 (peptide)
peptide: FEGLLRLWLRK[Aib]EE[Aib]N
B8: HBS 10 (peptide)
peptide: FEGLLRLWLRK[Aib]EE[Aib]N
modifications: staple (positions not given here); not fully specified (C-terminus, bridges); also: hydrogen bond surrogate: N-terminal main-chain i,i+4 H-bond replaced by C-C bond
B9: Peptide 11 (peptide)
peptide: FEGIYRLELLK[Aib]EE[Aib]N
B10: HBS 11 (peptide)
peptide: FEGIYRLELLK[Aib]EE[Aib]N
modifications: staple (positions not given here); not fully specified (C-terminus, bridges); also: hydrogen bond surrogate: N-terminal main-chain i,i+4 H-bond replaced by C-C bond
B11: Peptide 1 (peptide)
peptide: FEGIYRTDILRTEEGN
B12: Peptide 12 (peptide)
peptide: FEGLLRLWLRKAEEAN
B13: HBS 12 (peptide)
peptide: FEGLLRLWLRKAEEAN
modifications: staple (positions not given here); also: HBS: N-terminal main-chain i,i+4 H-bond replaced by C-C bond (ring-closing metathesis), residues 1-4
B14: Peptide 13 (peptide)
peptide: FEAIYRLELLKAEEAN
B15: HBS 13 (peptide)
peptide: FEAIYRLELLKAEEAN
modifications: staple (positions not given here); also: HBS: N-terminal main-chain i,i+4 H-bond replaced by C-C bond (ring-closing metathesis), residues 1-4
B16: Peptide 15 (peptide)
peptide: FEAIYRLEKLKAEEAN
B17: HBS 15^ (peptide)
peptide: FEAIYRLEKLKAEEAN
modifications: staple (positions not given here); lactam 9-13; also: HBS: N-terminal main-chain i,i+4 H-bond replaced by C-C bond (ring-closing metathesis), residues 1-4
B18: HBS 16 (peptide)
peptide: FEGIYRLEKLKAEEANRR
modifications: staple (positions not given here); also: HBS: N-terminal main-chain i,i+4 H-bond replaced by C-C bond (ring-closing metathesis), residues 1-4
B19: HBS 1 (peptide)
peptide: FEGIYRTDILRTEEGN
modifications: staple (positions not given here); also: HBS: N-terminal main-chain i,i+4 H-bond replaced by C-C bond (ring-closing metathesis), residues 1-4
B20: Peptide 2 (peptide)
peptide: FGEGIYRTDILRTEEGN
B21: Peptide 3 (peptide)
peptide: AEGIYRTDILRTEEGN
B22: Peptide 4 (peptide)
peptide: AEGIYRADILRTEEGN
B23: Peptide 5 (peptide)
peptide: FEGIYRTDILR
B24: Peptide 6 (peptide)
peptide: FEGIYRTELLKAEEAN
B25: HBS 6 (peptide)
peptide: FEGIYRTELLKAEEAN
modifications: staple (positions not given here); also: HBS: N-terminal main-chain i,i+4 H-bond replaced by C-C bond (ring-closing metathesis), residues 1-4

Target: Ras (residues 1-166 of human Ha-Ras) (human, UniProt P01112 1-166)
Test: cell-based or functional assay

| % Inhibition (Sos-mediated nucleotide exchange from Ras, mantGDP) [%] | Binder |
| --- | --- |
| 37 | B1 |
| 64 | B2 |
| 15 | B3 |
| < 5 | B4 |
| < 5 | B5 |
| 35 | B6 |
| 50 | B7 |
| 60 | B8 |
| 30 | B9 |
| 20 | B10 |
| 13 | B11 |
| 50 | B12 |
| 55 | B13 |
| 40 | B14 |
| 50 | B15 |
| 50 | B16 |
| < 10 | B17 |
| 56 | B18 |
| 11 | B19 |
| < 10 | B20 |
| < 10 | B21 |
| < 10 | B22 |
| < 10 | B23 |
| 20 | B24 |
| 40 | B25 |
